Test results as given in patent US8344120B2, “Nucleic acid molecules encoding rage fusion proteins” (TransTech Pharma, Inc., priority 2006, dated 2013).
Several values for one entry are separate records, joined by “and”; a condition that tells them apart may be missing. Equal entries are not always repeated.

What was measured:
[1] = tested on: HMGB1-induced TNF-α production in THP-1 cells; test: HMGB1-induced TNF-α production in THP-1 cells; type: cell-based; parameters: dose or concentration left out as unconfirmed; details: 24 hours
Experimental: HMGB1 has been reported to be a ligand for RAGE and the Toll-Like Receptors 2 and 4 (Park et al., J Biol Chem., 2004; 279(9):7370-7). All three of these receptors (RAGE, Toll-like receptor 2, and Toll-like receptor 4) are expressed on THP-1 cells (Parker, et al., J Immunol., 2004,172(8):4977-86.).
In this experiment, THP-1 cells were stimulated to produce TNF-α by HMGB1 ([…]) in the presence or absence of either TTP4000 or anti-RAGE antibodies. Under the conditions used in the assay, HMGB1 should be the only inducer of TNF-α.
HMGB 1 has been reported to be a ligand for RAGE and the Toll-Like Receptors 2 and 4 (Park et al., J. Biol Chem., 2004; 279(9):7370-7). All three of these receptors (RAGE, Toll-like receptor 2, and Toll-like receptor 4) are expressed on THP-1 cells (Parker, et al., J. Immunol., 2004,172(8):4977-86.).
In this experiment, THP-1 cells were stimulated to produce TNF-α by HMGB1 ([…]) in the presence or absence of either TTP4000 or anti-RAGE antibodies. Under the conditions used in the assay, HMGB1 should be the only inducer of TNF-α. The amount of TNF-αsecreted by the THP-1 cells was measured 24 hours after the addition of the proteins to the cell culture using a commercially available ELISA kit for TNF-α (R&D Systems, Minneapolis, Minn.).

[2] = tested on: diabetic rat model of restenosis; test: Diabetic rat model of restenosis; type: in vivo, rats; details: for Intimal area / Medial area: IP, 21 days
Experimental: Use of the RAGE fusion proteins in the treatment of diabetes related pathology is illustrated in FIG. 14.
In these experiments, balloon injury of left common carotid artery was performed in Zucker diabetic and nondiabetic rats using standard procedure. […] A maintenance dose was delivered every other day until day 7 after injury (i.e., at day 1, 3, 5 and 7 after injury). The maintenance dose was high=1 mg/animal for one group, or low=0.3 mg/animal for the second group. To measure vascular smooth muscle cell (VSMC) proliferation, animals were sacrificed at 4 days and 21 days after injury.
For the measurement of cell proliferation, 4 day animals received intraperitoneal injection of bromodeoxyuridine (BrDdU) 50 mg/kg at 18, 12, and 2 hours before euthanasia. After sacrifice, the entire left and right carotid arteries were harvested. Specimens were stored in Histochoice for at least 24 hours before embedding. Assessment of VSMC proliferation was performed using mouse anti-BrdU monoclonal antibody. A fluorescence labeled goat anti-mouse secondary antibody was applied. The number of BrdU-positive nuclei per section were counted by two observers blinded to the treatment regimens.
The remaining rats were sacrificed at 21 days for morphometric analysis. Morphometric analyses were performed by an observer blinded to the study groups, using computerized digital microscopic planimetry software Image-Pro Plus on serial sections, ([…]) carotid arteries stained by Van Gieson staining. All data were expressed as mean±SD. Statistical analysis was performed with use of SPSS software. Continuous variables were compared using unpaired t tests. A values of P≦0.05 was considered to be statistically significant.
In FIG. 14B, the y-axis represents the number of BrdU proliferating cells.

[3] = tested on: allogeneic rejection of transplanted islet cells; test: Allogeneic islet transplantation in diabetic B6 mice; type: in vivo; details: for day of graft loss for each animal: BALB/c islets in B6 mice; for day of graft loss, Mean: n 8
Experimental: C57BL/6J (6-8 week old) (B6) mice were made diabetic by a single intravenous injection of streptozotocin (STZ) (Sigma Chemical Co., St. Louis, Mo.) at 200 mg/kg.
BALB/cJ (6-8 week old) (BALB) mice served as donors for islet transplantation, thus providing an allo-mismatch for islet transplants.
Mice (BALB/c) were anesthetized with ketamine HCl/xylazine HCl solution (Sigma, St. Louis Mo.). After intraductal injection of 3 ml of cold Hank's balanced salt solution (HBSS, Gibco, Grand Island N.Y.) containing 1.5 mg/ml of collagenase P (Roche Diagnostics, Branchburg, N.J.), pancreata were surgically procured and digested at 37° C. for 20 mins. Islets were washed with HBSS and purified by discontinuous gradient centrifugation using Polysucrose 400 (Cellgro, Herndon Va.) having four different densities (26%, 23%, 20%, and 11%). The tissue fragments at the interface of the 20% and 23% layers were collected, washed and resuspended in HBSS. Individual islets, free of attached acinar, vascular and ductal tissues were handpicked under an inverted microscope, yielding highly purified islets for transplantation.
Streptozotocin-induced diabetic C57BL/6 (B6) mice received islet grafts within 2 days of the diagnosis of diabetes. BALB/cJ (6-8 week old) (BALB) mice served as donors for allogeneic islet transplantation. For transplantation, 500-600 freshly isolated islets (i.e., approximately 550 islet equivalents) from donor mice were picked up with an infusion set and transplanted into the subcapular space of the right kidney of a recipient.
Test compounds were administered as soon as the islets were transplanted; administration continued for about 60 days, depending upon how the control animal was faring.
Islet graft function was monitored by serial blood glucose measurements daily for the first 2 weeks after islet transplantation, followed by every other day thereafter. Reversal of diabetes was defined as blood a glucose level of less than 200 mg/dl on two consecutive measurements. Graft loss was determined when blood glucose exceeded 250 mg/dl on two consecutive measurements.

[4] = High dose 1.0 mg/animal qod × 4, loading dose 3 mg/animal
[5] = Low dose 0.3 mg/animal qod × 4, loading dose 3 mg/animal

B1: TTP-4000: four domain RAGE fusion protein: human RAGE N-terminal sequence (to position 251) linked to human IgG Fc (γ1) without hinge; SEQ ID NO: 34/56 (protein)
chain: QNITARIGEPLVLKCKGAPKKPPQRLEWKLNTGRTEAWKVLSPQGGGPWDSVARVLPNGSLFLPAVGIQDEGIFRCQAMNRNGKETKSNYRVRVYQIPGKPEIVDSASELTAGVPNKVGTCVSEGSYPAGTLSWHLDGKPLVPNEKGVSVKEQTRRHPETGLFTLQSELMVTPARGGDPRPTFSCSFSPGLPRHRALRTAPIQPRVWEPVPLEEVQLVVEPEGGAVAPPSVFLFPPKPKDTLMISRTPEVTCVVVDVSHEDPEVKFNWYVDGVEVHNAKTKPREEQYNSTYRVVSVLTVLHQDWLNGKEYKCKVSNKALPAPIEKTISKAKGQPREPQVYTLPPSRDELTKNQVSLTCLVKGFYPSDIAVEWESNGQPENNYKTTPPVLDSDGSFFLYSKLTVDKSRWQQGNVFSCSVMHEALHNHYTQKSLSLSPGK
inhibition of HMGB1-induced TNF-α production [1]: to a greater extent than does the anti-RAGE antibody | vascular smooth muscle cell proliferation (BrdU-positive nuclei) ([2]; 4 days after injury, dose-responsive): significantly reduced | Intimal area [2, 4]: 0.16 ± 0.02 mm^2 | Medial area [2, 4]: 0.11 ± 0.01 mm^2 | Intimal area [2, 5]: 0.18 ± 0.04 mm^2 | Medial area [2, 5]: 0.11 ± 0.02 mm^2 | day of graft loss for each animal ([3]; 300 ug + 30 ug qod ip): 12 day (2×) and 11 day (2×) and 8 day (2×) and 13 day and 14 day | day of graft loss, Mean ([3]; 300 ug + 30 ug qod ip): 11.125 days | day of graft loss for each animal ([3]; 300 ug LD + 100 ug qod ip): 13 day (2×) and 12 day and 16 day (2×) and 15 day and 14 day (2×) | day of graft loss, Mean ([3]; 300 ug LD + 100 ug qod ip): 14.125 days | time before detection of graft failure, in words ([3]; Groups 1 and 3 versus untreated, PBS or human IgG1): increase in the time before detection of graft failure
